Assay results: US7192728B2, “Screening assays for agents that alter inhibitor of apoptosis (IAP) protein regulation of caspase activity” (The Burnham Institute, priority 1997, dated 2007)

How the values were obtained:
[1] = target: T1, caspase-6 (Homo sapiens, UniProt P55212); assay: GST pull-down binding to caspase-6; details: glutathione-Sepharose beads, immunoblot
T1 construct: Purified active caspase concentrations ranged from 0.1 nM to 10 nM; His6; made in house; host or cells: E. coli BL21(DE3)pLysS
T1 sequence (P55212 24-179 limits assumed): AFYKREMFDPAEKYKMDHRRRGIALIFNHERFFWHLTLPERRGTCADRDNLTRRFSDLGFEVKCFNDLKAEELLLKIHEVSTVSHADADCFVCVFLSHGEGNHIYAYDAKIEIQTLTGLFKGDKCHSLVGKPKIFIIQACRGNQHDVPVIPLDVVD
T1 sequence (P55212 194-293 limits assumed): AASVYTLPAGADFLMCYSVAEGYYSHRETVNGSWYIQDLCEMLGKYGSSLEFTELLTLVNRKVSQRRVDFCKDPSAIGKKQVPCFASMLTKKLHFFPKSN

[2] = system: 293 cells; assay: Fas-induced apoptosis in transfected 293 cells; type: cell-based, human; details: co-transfection of Fas and myc-XIAP; 36 hrs
Description: For determination of apoptotic activity in FIG. 2B, 293 cells in 60 mm dishes were transiently transfected with 6 μg of pcDNA-myc-tag control or pcDNA-myc-XIAP plasmids, and either 2 ug of pCMV5 or pCMV5-Fas plasmid DNA. All transfections included 0.5 ug of pEGFP as a marker and were normalized for total DNA content. The percentage of GFP positive cells with apoptotic morphology and nuclear changes consistent with apoptosis were enumerated by DAPI-staining (mean+SD; n=3) at 36 hrs. Alternatively, cell lysates were prepared, and immunoprecipitates were collected using anti-myc monoclonal antibody with protein-G-Sepharose, followed by SDS-PAGE immunoblot assay using anti-caspase-3 antiserum (Krajewska et al., supra 1997) to reveal the XIAP-associated p24 isoform of partially processed caspase-3. Lanes correspond to cells transfected with: (1) control plasmid; (2) myc-XIAP; (3) Fas plus myc-control; and (4) Fas plus myc-XIAP.
Apoptotic assays were performed as follows. 293 cells were transfected as described above, except that 0.5 μg pEGFP plasmid DNA was included.

[3] = target: T2, caspase-3 (Homo sapiens, UniProt P42574); assay: Inhibition of purified recombinant caspase-3, DEVD substrate hydrolysis and progress curves; type: biochemical
T2 construct: to produce the 17–20 kDa mature, fully processed large subunit of the active caspase-3 enzyme; a smaller, fully processed, subunit of about 11 kDa; His6; made in house; host or cells: E. coli BL21(DE3)pLysS
T2 sequence (P42574 29-175 limits assumed): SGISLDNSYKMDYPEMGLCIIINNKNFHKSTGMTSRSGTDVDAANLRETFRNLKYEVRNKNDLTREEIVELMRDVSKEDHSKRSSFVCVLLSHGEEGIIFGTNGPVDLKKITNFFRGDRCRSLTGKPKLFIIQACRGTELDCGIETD
T2 sequence (P42574 176-277 limits assumed): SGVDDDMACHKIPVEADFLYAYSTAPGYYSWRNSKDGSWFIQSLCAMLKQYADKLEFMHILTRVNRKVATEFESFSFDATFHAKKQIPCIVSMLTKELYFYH
Description: Purified recombinant caspase-1, caspase-3, caspase-6, caspase-7 or caspase-8 were incubated with DEVD-pNA, either alone or with a 10-fold to 50-fold molar excess of GST-XIAP ([…]) and substrate hydrolysis was measured. Purified active caspase concentrations ranged from 0.1 nM to 10 nM. XIAP concentration ranged from 0.1 nM to 500 nM. Assays were performed in caspase buffer (50 mM Tris, pH 7.4, 100 mM NaCl, 10% sucrose, 5–10 mM DTT, 1 mM EDTA and 0.1% CHAPS).
Equilibria were determined from progress curves when substrate hydrolysis reached a steady-state; slopes were calculated by curve fit analysis using the cricket graph program. Experiments were performed using purified recombinant caspase-3, caspase-6, or caspase-7. DEVD-AFC hydrolysis was measured using 0.1 nM caspase and a range of concentrations (0.2 to 12 μM) of recombinant XIAP (rXIAP). […] Average ratio velocities (vi/vo, where “vi” indicates presence of GST-XIAP and “vo” indicates absence of GST-XIAP) were determined.
Caspase activity was determined essentially as described in Example II, using the benzylyoxycarbonyl-DEVD-AFC (SEQ ID NO: 2) substrate and was assayed at 37° C. using the Perkin-Elmer LS50B fluorometric plate reader in the kinetic mode with excitation and emission wavelengths of 400 nm and 505 nm, respectively. […] Reactions were performed in caspase buffer (50 mM Hepes, 100 mM NaCl, 1 mM EDTA, 0.1% CHAPS, 10% sucrose, 5 mM DTT). The inhibition constant, Ki, was calculated as described (Zhou et al., supra, 1997). Immunoblot analysis was performed as described in Example I.B.3.

[4] = system: pro-caspase-3 processing induced by cytochrome c; assay: Cytochrome c-induced processing of pro-caspase-3 in 293 cytosolic extracts; type: biochemical, human; details: immunoblot
Description: Samples were incubated at 30° C. for 30 minutes. Extracts were then separated by SDS-PAGE electrophoresis, transferred to nitrocellulose and incubated with antisera specific for the zymogen and large subunit of caspase-3.
Briefly, cells were washed with ice-cold buffer A (20 mM Hepes [pH 7.5], 10 mM KCl, 1.5 mM MgCl2, 1 mM EDTA, and 1 mM DTT) and suspended in 1 volume of buffer A. Cells were incubated on ice for 20 minutes and then disrupted by passage through a 26 gauge needle 15 times. Cell extracts were clarified by centrifugation at 16,000×g for 30 minutes and the resulting supernatants were stored at −80° C. For initiating caspase activation, either 10 μM horse heart cytochrome c (Sigma, Inc.) together with 1 mM dATP, or 100 nM of purified recombinant caspase-8, was added to extracts (10–15 mg total protein/ml).

In the case of “XIAP: X chromosome linked inhibitor of apoptosis protein (Genbank U32974), used mostly as recombinant GST fusion or expressed from plasmid”, the “binding of caspase-6 (in words)” value [1] is reported as “not caspase-6”, the “Fas-induced apoptosis (in words)” value [2] is reported as “markedly suppressed” and the “inhibition of processing of DEVD-pNA by caspase-3” value ([3]; 10-fold molar excess) is reported as “greater than 95%”. For the same substance, the “average ratio velocity (vi/vo), caspase-3” value ([3]; DEVD-AFC hydrolysis with/without GST-XIAP) was “less than 0.2”, the Ki ([3]; progress curve analysis, DEVD-AFC 0.1 mM, 0.1 nM caspase, read-out: inhibition constant (Ki) for caspase-3) was about 0.7 nM and the “concentration that effectively abolished cytochrome c-induced processing of pro-caspase-3” value [4] was 0.1 to 0.2 µM.
